Substitutions are numbered along the chain they refer to.
What was measured:
Assay in all cases: flow cytometry on PEAK cells displaying the mutated mouse IL-6R, goat anti-human IgG Alexa Fluor 647
MUTANT 4 = target: T1, MUTANT 4 (mouse, UniProt P22272)
T1 construct: also called mouse IL-6R with human residues in D3, mutant 4
T1 sequence (receptor chain, looked up): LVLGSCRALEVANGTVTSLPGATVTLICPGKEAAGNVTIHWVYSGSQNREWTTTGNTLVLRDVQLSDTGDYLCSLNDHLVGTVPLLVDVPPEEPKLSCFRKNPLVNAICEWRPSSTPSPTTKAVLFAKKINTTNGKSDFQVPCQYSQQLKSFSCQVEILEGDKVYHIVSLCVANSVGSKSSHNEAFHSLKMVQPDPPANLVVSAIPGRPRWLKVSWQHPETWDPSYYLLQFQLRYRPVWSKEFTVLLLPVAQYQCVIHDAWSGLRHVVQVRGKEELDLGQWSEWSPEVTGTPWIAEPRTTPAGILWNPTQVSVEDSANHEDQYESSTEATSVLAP
Description: (§1) An overlap extension PCR strategy was used to generate coding sequences specifying huIL-6R/mouseIL-6R chimeric proteins (FIG. 6A) and mouse IL-6R proteins containing human amino acid substitutions in D3 domains (FIG. 6B). Partially overlapping mutagenic oligonucleotide primers were used for PCR amplification of N- and C-terminal sequences on either side of huIL-6R/mouse IL-6R junctions or substituted regions, followed by gel isolation and annealing of the denatured PCR products. Full length PCR products were then digested by EcoRI and BglII and ligated into a pDISPLAY™ vector (Invitrogen). PEAK cells were grown in DMEM medium supplemented with 10% fetal calf serum and 4 mM L-glutamine. Cells were plated 12 to 24 h before transfection to have 40-50% confluency in 6 well plates. Transfections of pDISPLAY™ vectors (Invitrogen) were carried out by lipofection using TransIT® LT1 reagent (MirusBio) according manufacturer's specifications. Cells were grown for 48 h before harvesting and analysis by flow cytometry.
(§2) Cell surface staining was performed on PEAK cells displaying each variant of IL-6R and analyzed by flow cytometry (FIG. 6B-D). Cell surface expression of each chimeric IL-6R was assessed using an anti-human-CD126 PE or an anti-mouse CD126-PE antibody (BD Pharmingen).

MUTANT 1 = target: T2, MUTANT 1 (mouse, UniProt P22272)
T2 construct: also called mouse IL-6R with human residues in D3, mutant 1
T2 sequence (receptor chain, looked up): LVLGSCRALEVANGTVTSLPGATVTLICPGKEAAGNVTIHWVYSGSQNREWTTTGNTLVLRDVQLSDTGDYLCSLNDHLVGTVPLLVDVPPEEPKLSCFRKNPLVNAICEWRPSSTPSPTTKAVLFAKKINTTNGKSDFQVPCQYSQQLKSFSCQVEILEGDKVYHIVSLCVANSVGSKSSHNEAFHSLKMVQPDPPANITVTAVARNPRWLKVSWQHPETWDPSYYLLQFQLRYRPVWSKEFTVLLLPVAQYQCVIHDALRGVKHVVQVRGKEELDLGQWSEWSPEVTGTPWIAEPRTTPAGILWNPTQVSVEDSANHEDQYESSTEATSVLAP
Description: as §1, §2

MUTANT 2 = target: T3, MUTANT 2 (mouse, UniProt P22272)
T3 construct: also called mouse IL-6R with human residues in D3, mutant 2
T3 sequence (receptor chain, looked up): T1 sequence (receptor chain, looked up) with P237A, V238E, W239R, E242T, W261L, S262R, L264V, R265K
Description: as §1, §2

MUTANT 3 = target: T4, MUTANT 3 (mouse, UniProt P22272)
T4 construct: also called mouse IL-6R with human residues in D3, mutant 3
T4 sequence (receptor chain, looked up): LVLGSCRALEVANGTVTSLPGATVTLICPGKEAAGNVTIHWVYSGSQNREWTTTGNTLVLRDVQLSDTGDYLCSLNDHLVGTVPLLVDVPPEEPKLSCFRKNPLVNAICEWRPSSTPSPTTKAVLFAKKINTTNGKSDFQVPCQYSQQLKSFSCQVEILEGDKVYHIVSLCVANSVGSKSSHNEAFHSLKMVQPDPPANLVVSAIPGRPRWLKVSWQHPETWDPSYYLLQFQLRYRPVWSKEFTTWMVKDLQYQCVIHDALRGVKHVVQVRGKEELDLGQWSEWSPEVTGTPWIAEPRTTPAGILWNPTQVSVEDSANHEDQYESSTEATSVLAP
Description: as §1, §2

MUTANT 5 = target: T5, MUTANT 5 (mouse, UniProt P22272)
T5 construct: also called mouse IL-6R with human residues in D3, mutant 5
T5 sequence (receptor chain, looked up): T1 sequence (receptor chain, looked up) with W261L, S262R, L264V, R265K, L276F, D277G, L278Q, Q280E
Description: as §1, §2

B1: NI-1201 wild type (NI-1201-WT) antibody (antibody, V domains shown)
VH: QVQLVQSGAEVKKPGSSVKVSCKASGGTFSSYAISWVRQAPGQGLEWMGGIIPLFDTTKYAQQFQGRVTITADESTSTAYMELSSLRSEDTAVFYCARDRDILTDYYPMGGMDVWGQGTTVTVSS
VL: AIQLTQSPSSLSASVGDRVTITCRASQGISSVLAWYQQKPGKAPKLLIYDASSLESGVPSRFSGSGSGTDFTLTISSLQPEDFATYYCQQSNSYPLTFGGGTKVEIKR
notes: Fully human monoclonal IgG (captured by anti-human IgG Fc in Biacore); also called 39B9 VL1
**Q.** Does B1 bind (MUTANT 4)?
**A.** Result: no binding

**Q.** Does B1 bind (MUTANT 1)?
**A.** Result: no binding

**Q.** Does B1 bind (MUTANT 2)?
**A.** Result: binds

**Q.** Does B1 bind (MUTANT 3)?
**A.** Result: no binding

**Q.** Does B1 bind (MUTANT 5)?
**A.** Result: no binding

From patent publication US20160130351A1 (NOVIMMUNE S A, published 2016)
